Reference: patent publication US6645504B1, “Bystander suppression of type I diabetes by oral administration of glucagon” (AutoImmune Inc., priority 1987, dated 2003)

How the values were obtained:
MBP specific T-cells = test: In vitro suppression of proliferative responses by supernatants; assay type: cell-based, Lewis rats; conditions: supernatants of splenocytes from fed animals stimulated in vitro with MBP; FIG. 1
Protocol: Induction Of Oral Tolerance. Rats were fed 1 mg of MBP dissolved in 1 ml PBS, or PBS alone, by gastric intubation using a 18-gauge stainless steel animal feeding needle (Thomas Scientific, Swedesboro, N.J.). Animals were fed five times at intervals of 2-3 days with the last feeding two days before immunization. The purpose of this was to induce tolerance.
In Vitro Suppression Of Proliferative Responses By Supernatants. Spleen cells were removed 7-14 days after the last feeding and a single cell suspension prepared by pressing the spleens through a stainless steel mesh. For preparation of supernatants, spleen cells at a concentration of 5×10^6 cells/ml were stimulated in vitro with MBP (50 μg/ml) in 10 ml of proliferation medium. Proliferation medium consisted of RPMI 1640 (GIBCO, Grand Island, N.Y.) supplemented with 2×10^−5 M 2-mercaptoethanol, 1% sodium pyruvate, 1% penicillin and streptomycin, 1% glutamine, 1% HEPES buffer, 1% nonessential amino acids and 1% autologous serum. […] Cultures were harvested onto fiberglass filters using a multiharvester and counted using standard liquid scintillation techniques.
Purification Of T-Cell Subsets. […] The quantity of magnetic beads used was calculated as being 10 times the estimated target cell population. […]

EAE [1] = test: In vivo bystander suppression of EAE (MBP/CFA plus secondary antigen); design: species or system Lewis rats; conditions: MBP fed before MBP/CFA immunization; FIG. 6B
Protocol: Immunization Of Animals. Animals were immunized with 25 μg of MBP in the footpad, emulsified in an equal volume of CFA containing 4 mg/ml of Mycobacterium tuberculosis (Difco Labs, Detroit, Mich.) in order to induce a substantial EAE disease state. For in vivo bystander suppression experiments, 50-300 μg of the secondary antigens OVA, BSA or KLH were injected subcutaneously in the same footpad in 100 μl PBS 8 hours after primary immunization with MBP CFA.
Clinical Evaluation. Animals were evaluated in a blinded fashion every day for evidence of EAE in order to correlate the clinical manifestations of Bystander Suppression with the in vitro assays described below. Clinical severity of EAE was scored as follows: 0, no disease; 1, limp tail; 2, hind limb paralysis; 3, hind limb paraplegia, incontinence; 4, tetraplegia; 5, death. Mean maximal clinical severity was calculated as previously described for each experimental group (7). Statistical analysis was performed using a one-tailed student's t test and a chi square analysis for comparing incidence between groups.
Induction Of Oral Tolerance. Animals were fed 1 mg MBP, OVA, BSA or KLH dissolved in 1 ml PBS or PBS alone, by gastric intubation using an 18-gauge stainless steel animal feeding needle (Thomas Scientific, Swedesboro, N.J.). Animals were fed five times (total dose of 5 mg), at intervals of 2-3 days with the last feeding 2 days before immunization.

[2] = system: DTH responses to MBP or OVA; test: Delayed type hypersensitivity (DTH) testing, Example 2; assay type: in vivo, Lewis rats; conditions: fed antigen, then immunized with MBP/CFA plus OVA; FIG. 7
Protocol: Delayed Type Hypersensitivity (DTH) Testing. DTH was tested by injecting 50 μg of MBP or OVA in PBS, subcutaneously into the ear. MBP was injected in the left ear and OVA in the right ear in the same animal. Thickness, in units of 0.01 inch, was measured in a blinded fashion, before and 48 hours after challenge, using micrometer calipers (Mitutoyo, Utsunomia, Japan). Change in ear thickness before and after challenge was recorded for each animal, and results were expressed as the mean for each experimental group ± SEM; each group consisted of five animals.

insulitis = test: Suppression of insulitis in NOD mice by oral administration; assay type: in vivo; conditions: fed orally
Protocol: NOD mice (Taconic Labs) were fed one mg of glucagon, or one mg of porcine insulin (both commercially purchased) or equal molar amounts of insulin A-chain, B-chain and B-chain peptides described below (all insulin fragments having been synthesized) twice weekly for five weeks and sacrificed at ten weeks of age.
Control animals were fed a non-pancreatic (i.e., unrelated) peptide, GAP. Insulitis was measured as a semiquantitative insulitis score according to the method described in Zhang, Z. J., PNAS(USA), 88:10252-10256, 1991.
The insulin B-chain peptides corresponded to amino acid residues 1-12 (B1-12), 10-22 (B10-22), 11-30 (B11-30) and 23-30 (B23-30). All animals were fed 10 times over three weeks.

EAE [3] = test: I.V. tolerization with MBP and MBP peptides in EAE induced with whole guinea pig MBP; assay type: in vivo, SJL/J mice; conditions: days 8 and 9 post immunization, FIG. 16
Description: FIG. 16 is a bar graph showing the effect of intravenous tolerization with MBP and disease inducing and non-inducing fragments thereof on induced EAE expression in SJL/J mice.
Finally, the suppression of EAE by I.V. tolerization with MBP and MBP peptides prior to disease expression (on days 8 and 9 post immunization) was examined.

B1: MBP: Guinea pig myelin basic protein purified from brain tissue (protein, UniProt P25188 1-167, looked up)
Myelin basic protein: ASQKRPSQRHGSKYLATASTMDHARHGFLPRHRDTGILDSIGRFFGSDRAAPKRGSGKDSHHAARTTHYGSLPQKSQRSQDENPVVHFFKNIVTPRTPPPSQGKGRGLSLSRFSWGAEGQKPGFGYGGRADYKSKGFKGAHDAQGTLSKIFKLGGRDSRSGSPMARR
MBP specific T-cells
  proliferation of the MBP line after addition of supernatants: reduction in the proliferation of the MBP line
EAE [1]
  disease severity: 1.1±0.1
[2]
  DTH responses to MBP: Suppressed DTH responses to MBP
insulitis
  suppression of insulitis (in words): No suppression was observed
insulitis; amount (mg) per Table 5, sacrificed at ten weeks of age
  Insulitis Score: 2.14
EAE [3]
  suppression of EAE induced with whole guinea pig MBP: effective in suppressing EAE
